Source: patent US5858728, “Monoclonal antibody against LPS core” (Common Services Agency, dated 1999)
Changes are numbered by the printed parent chain.

B1: murine monoclonal antibody WN1 222-5 (antibody, V domains shown)
VH: EVKLVESGGGLVQPGGSLSLSCAASGFTFSDYYMTWVRQAPGKAPEWLALIRNKRNGDTAEYSASVKGRFTISRDYSRSILHLQMNALRTEDSATYYCVRQGRGYTLDYWGQGTSVTVSS
VL: DIQMNQSPSSLSASLGDTISITCRASQNINIWLSWYQQKPGNVPKLLIYKASNLHTGVPSRFSGSGSGTDFTLIISSLQPEDIATYYCLQGQSYPRTFGGGTKLEIK
B2: murine monoclonal antibody WN1 58-9 (antibody, V domains shown)
VH: EVKLVESGGGLVQPGGSLRLSCAASGFTFIDYYMTWVRHPPGEAPEWLALIRNYRNGDTAEYSASVRGRFTISRDDSQSILYLQMNALRAEDSATYYCVRQGRGYTLDYWGQGTSVTVSS
VL: B1 VL with S20T, S26R, Q27L, P40A, V43I, Y49S, I74T, Q79R

Biological target: bovine serum albumin (bovine, UniProt P02769)
Experiment: ELISA, plate coated with BSA as negative control (panel of purified LPS)
Experimental: Microtitre plates (flat bottomed; microtest III flexible assay plates: Becton Dickinson, Falcon 3912) are coated with purified LPS at 2 µg/ml in coating buffer (diethylenebarbituric acid-Na salt 30 mM. Na acetate 30 mM, NaCl 116 mM; pH 4.5). 50 µl aliquots of the LPS solution are distributed into each well. Unrelated protein (BSA, 2% in PBS pH 7.2/0.02% sodium azide) is used to determine non-specific binding. Plates are incubated for 1 hr at 37° C. and then overnight at 4° C. in a humidified chamber. Plates are washed 4 times with a washing solution i.e. phosphate buffered saline (PBS) pH 7.2, 0.05% vol/vol Tween 20, 0.02% sodium azide. Plates are blocked with 250 µl/well of 2% BSA in PBS/sodium azide 0.02% for 3 hrs at room temperature. Plates are washed again.
Antibody solutions are prepared in PBS/BSA 2%/sodium azide 0.02% at various dilutions, e.g. 1 µg/ml, 100 ng/ml, 10 ng/ml and 1 ng/ml. 50 µl aliquots of these solutions are distributed in the wells of the precoated plates. Incubation is carried out overnight at room temperature. […] After 1 hr, absorbance is read at 405 nm using a Titertek Multiskan ELISA reader (MCC/340, Flowlabs).

Binder	binding result
B1	no binding (tested: 100 ng/ml)
B2	no binding (tested: 100 ng/ml)
